Experimental findings from patent US20160355590A1 (UNIVERSITY OF SOUTHERN CALIFORNIA, published 2016) are described below.

Assay [1] concerns the target human HLA-DR (allele not stated), on cells (human). The assay is described as follows: Scatchard plot analysis, normal B cells against tumor cell line.
For assay [2] the target is unchanged. The assay is described as follows: Scatchard plot analysis, avidity constant on tonsil lymphocytes.
For assay [3] the target is unchanged. The assay is described as follows: Scatchard plot analysis, avidity constant on ARH-77 myeloma cells.

B1: Lym-2 monoclonal antibody (antibody, V domains shown)
VH: EVQLEESGGGLVQPGGSMKLSCVASGFTFSNYWMNWVRQSPEKGLEWVAEIRFKSHNYATHFAESVKGRFTISRDDSKSSVYLQMNNLRAEDTGIYYCTRRIGNSDYDWWYFDVWGAGTSVTVSS
VL: DIVMTQSHKFMSTSVGDRVSVTCKASQNVGNNVAWYQQKPGQSPKVLIYSASYRYSGVPDRFTGSGSGTDFTLTISNVQSEDLAEYFCQQYNTYPFTFGSGTKLEIK
notes: Mouse (BALB/c) hybridoma monoclonal antibody raised against CLL biopsy cell nuclei; detected with goat anti-mouse IgG
For the molecule B1, in assay [1], the “fold decrease in binding affinity on normal B cells against tumor cells” value stood at 2 fold. Moreover, the Ka in assay [2] worked out at 1.23e+08 M⁻¹; in assay [3], 2.33e+08 M⁻¹.

B2: Lym-1 monoclonal antibody (antibody, V domains shown)
VH: QLKESGPGLVAPSQSLSITCTISGFSLTSYGVHWVRQPPGKGLEWLVVIWSDGSTTYNSALKSRLSISKDNSKSQVFLKMNSLQTDDTAIYYCASHYGSTLAFASWGHGTLVTVSA
VL: DIQMTQSPASLSASVGETVTIICRASVNIYSYLAWYQQKQGKSPQLLVYNAKILAEGVPSRFSGSGSGTQFSLKINSLQPEDFGSYYCQHHYGTFTFGSGTKLEIK
notes: Mouse (BALB/c) hybridoma monoclonal antibody raised against Raji Burkitt's lymphoma cell nuclei; detected with goat anti-mouse IgG
For B2, in assay [1], the “fold decrease in binding affinity on normal B cells against tumor cells” value was found to be 4 fold. Also, the Ka in assay [2] came out at 8.8e+07 M⁻¹.
